For the assay, the target named is T1, Flag RbAp46 (Xenopus, recombinant) (Xenopus, UniProt Q8AVH1 1-425).
T1 construct: RbAp46, Xenopus (xRbAp46); also called xRbAp46
Kind of assay: pull-down; GST-histone tails coupled to NHS Sepharose (20 μl resin) with 0.7 μg Hat1, RbAp46 or RbAp48, or RbAp46 with Hat1, in 150 μl 20 mM K-HEPES pH 7.4, 50 mM KCl, 0.1% Tween-20, 5 mM DTT; 2 h at 4 °C; washes with 300 mM KCl; coomassie-stained gel. To be noted: both partners purified.

T1 sequence (Q8AVH1 whole entry): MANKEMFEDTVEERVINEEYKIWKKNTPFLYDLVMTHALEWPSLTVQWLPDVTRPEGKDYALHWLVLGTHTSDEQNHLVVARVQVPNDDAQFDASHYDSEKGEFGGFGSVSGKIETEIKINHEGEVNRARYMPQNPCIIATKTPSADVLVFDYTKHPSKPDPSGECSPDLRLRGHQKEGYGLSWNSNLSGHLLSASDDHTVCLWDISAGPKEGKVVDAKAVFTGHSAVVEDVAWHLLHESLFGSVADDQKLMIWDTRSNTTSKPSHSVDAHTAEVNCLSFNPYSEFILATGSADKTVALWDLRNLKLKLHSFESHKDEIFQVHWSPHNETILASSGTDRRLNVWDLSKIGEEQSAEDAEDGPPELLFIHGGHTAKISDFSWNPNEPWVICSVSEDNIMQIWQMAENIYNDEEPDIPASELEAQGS

B1: GST fusion to Xenopus laevis CENP-A amino terminus (amino acids 1–50) (domain or fragment, UniProt Q569M3 1-50, looked up)
chain: MRPGSTPPSRRKSRPPRRVSPPLPTTSRTSPRRPHAQQQRRASRASPKKR
notes: CENP-A, Xenopus laevis, amino terminus, amino acids 1–50, in pGEX-6P-1; also called GST-CENP-A N-terminal tail; xCENP-A N-terminus
Turning to B1, the binding result is listed as “binds”.

The values above are taken from PMC5097169, “Acetylation of histone H4 lysine 5 and 12 is required for CENP-A deposition into centromeres” (Nature Communications, 2016).
